Experimental data reported in patent US20080299638A1 (priority 2004, published 2008).

How the values were obtained:
HBV-DNA in 2.2.15 cells = assay: HBV-DNA Southern blot in 2.2.15 cells; type: cell-based, hepatitis B virus
Method: Southern blot: Extraction of HBV-DNA from 2.2.15 cells: add drugs and incubate 2.2.15 cells for 8 days, remove medium and harvest cells, lyse cells with lysis solutions, extracts with equal volume phenol:chloroform:isopentanol twice, add absolute ethanol to precipitate nucleic acid, vacuum dry, re-dissolve in 20 μl TE buffer, add DNA sample buffer, put samples into agarose gel for electrophoresis. After electrophoresis, denature, neutralize and transfer to membrane. Oven dry, hybridize, expose with dot blotting the same time. Scan developed film with scanner, analyze relative density with gel-pro software, and calculate suppression rate and IC50.

2.2.15 cells = assay: Arginase toxicity to cells (CPE method, Reed-Muench); type: cell-based, human; conditions: 8 days drug addition
Method: Divide experiment into control group and test groups with different drug concentration. Digest cells, dilute to 200,000 cells/ml, transfer to culture plate, 100 μl per well for 96-well plate, incubate for 24 hours under 5% CO2 at 37° C., ready for experiment when cells grown into monolayer. […] Observe cytopathological changes, 8 days or 4 days under microscope, totally destroyed is 4; 75% destroyed is 3; 50% destroyed is 2, 25% destroyed is 1; no changes is 0. Calculate TC50 and TC0 according to Reed-Muench Method:
A=log>50% drug concentration; B=log<50% drug concentration; C=log times of dilution
Starting from 40 IU/ml and subsequently 20, 10, 5, 2.5 IU/ml, change drug solution every 4 days until 8 days, observe cytopathological changes under microscope, and check for CPE with microscope.

[1] = test system: HBV-DNA in supernatant of 2.2.15 cell culture; assay: HBV-DNA dot blot in supernatant of 2.2.15 cell culture; type: cell-based, hepatitis B virus; conditions: Arginase 1.25 μg/ml (unit as headed), batch 2, day 8
Method: Extraction of HBV-DNA from 2.2.15 cells supernatant: Grow 200000 cells/ml 2.2.15 cell on 24-well plate, 1 ml per well, add drugs after 24 hours incubation, change drug solution every 4 days with the same concentration, collect supernatant from cell culture after 8 days of incubation counted from the day drugs added into the culture, precipitate with polyethylene glycol, digest with proteinase K, extract with phenol:chloroform:isopentanol, nucleic acid precipitation by absolute ethanol and so on procedures, vacuum dry, re-dissolve in TE buffer as sample.
Dot blot: place dots: take 20 μl sample (contains 25 μg DNA), denature, neutralize, serial dilute 20×SSC buffer to 1:8 dilution on nitrocellulose membrane, oven dry, pre-hybridize, hybridize, wash membrane, radioactive self exposure and so on procedures. Develop X ray film with conventional method. Scan developed film with scanner, measure density with gel-pro software, calculate suppression rate and IC50.

[2] = Arginase 2.5 μg/ml (unit as headed), batch 1, day 8
[3] = Arginase 2.5 μg/ml (unit as headed), batch 2, day 8
[4] = Arginase 5 μg/ml (unit as headed), batch 1, day 8
[5] = Arginase 5 μg/ml (unit as headed), batch 2, day 8
[6] = Arginase 10 μg/ml (unit as headed), batch 1, day 8
[7] = Arginase 10 μg/ml (unit as headed), batch 2, day 8
[8] = Arginase 20 μg/ml (unit as headed), batch 1, day 8
[9] = Arginase 20 μg/ml (unit as headed), batch 2, day 8

B1: Arginase: Pegylated recombinant human arginase (BCT-100); human arginase I with N-terminal six-histidine tag, SEQ ID NO: 3 (protein, listed as Homo sapiens)
chain: MHHHHHHMSAKSRTIGIIGAPFSKGQPRGGVEEGPTVLRKAGLLEKLKEQECDVKDYGDLPFADIPNDSPFQIVKNPRSVGKASEQLAGKVAQVKKNGRISLVLGGDHSLAIGSISGHARVHPDLGVIWVDAHTDINTPLTTTSGNLHGQPVSFLLKELKGKIPDVPGFSWVTPCISAKDIVYIGLRDVDPGEHYILKTLGIKYFSMTEVDRLGIGKVMEETLSYLLGRKKRPIHLSFDVDGLDPSFTPATGTPVVGGLTYREGLYITEEIYKTGLLSGLDIMEVNPSLGKTPEEVTRTVNTAVAITLACFGLAREGNHKPIDYLNPPK
modifications: PEGylated
HBV-DNA in 2.2.15 cells; 2.2.15 cells, 8 days
  Effect on HBV-DNA in cells (result in words): lowers
HBV-DNA in 2.2.15 cells; [2]
  HBV-DNA Southern Blot In Lane % Suppression: 31.6525%
  HBV-DNA Southern Blot Sum % Suppression: 26.4131%
HBV-DNA in 2.2.15 cells; Arginase 2.5 μg/ml (unit as headed), batch 1, day 8, control 29421
  HBV-DNA Southern Blot Sum (IOD): 21650 IOD
HBV-DNA in 2.2.15 cells; Arginase 2.5 μg/ml (unit as headed), batch 1, day 8, control 42082
  HBV-DNA Southern Blot In Lane (IOD): 28762 IOD
HBV-DNA in 2.2.15 cells; [3]
  HBV-DNA Southern Blot In Lane % Suppression: 38.6255%
  HBV-DNA Southern Blot Sum % Suppression: 0%
HBV-DNA in 2.2.15 cells; Arginase 2.5 μg/ml (unit as headed), batch 2, day 8, control 66143
  HBV-DNA Southern Blot Sum (IOD): 68619 IOD
HBV-DNA in 2.2.15 cells; Arginase 2.5 μg/ml (unit as headed), batch 2, day 8, control 76188
  HBV-DNA Southern Blot In Lane (IOD): 88350 IOD
HBV-DNA in 2.2.15 cells; [4]
  HBV-DNA Southern Blot In Lane % Suppression: 31.5717%
  HBV-DNA Southern Blot Sum % Suppression: 31.6679%
HBV-DNA in 2.2.15 cells; Arginase 5 μg/ml (unit as headed), batch 1, day 8, control 29421
  HBV-DNA Southern Blot Sum (IOD): 20104 IOD
HBV-DNA in 2.2.15 cells; Arginase 5 μg/ml (unit as headed), batch 1, day 8, control 42082
  HBV-DNA Southern Blot In Lane (IOD): 28796 IOD
HBV-DNA in 2.2.15 cells; [5]
  HBV-DNA Southern Blot In Lane % Suppression: 19.0752%
  HBV-DNA Southern Blot Sum % Suppression: 30.0259%
HBV-DNA in 2.2.15 cells; Arginase 5 μg/ml (unit as headed), batch 2, day 8, control 66143
  HBV-DNA Southern Blot Sum (IOD): 46283 IOD
HBV-DNA in 2.2.15 cells; Arginase 5 μg/ml (unit as headed), batch 2, day 8, control 76188
  HBV-DNA Southern Blot In Lane (IOD): 61655 IOD
HBV-DNA in 2.2.15 cells; [6]
  HBV-DNA Southern Blot In Lane % Suppression: 22.7722%
  HBV-DNA Southern Blot Sum % Suppression: 17.6303%
HBV-DNA in 2.2.15 cells; Arginase 10 μg/ml (unit as headed), batch 1, day 8, control 29421
  HBV-DNA Southern Blot Sum (IOD): 24234 IOD
HBV-DNA in 2.2.15 cells; Arginase 10 μg/ml (unit as headed), batch 1, day 8, control 42082
  HBV-DNA Southern Blot In Lane (IOD): 32499 IOD
HBV-DNA in 2.2.15 cells; [7]
  HBV-DNA Southern Blot In Lane % Suppression: 13.0559%
  HBV-DNA Southern Blot Sum % Suppression: 29.1172%
HBV-DNA in 2.2.15 cells; Arginase 10 μg/ml (unit as headed), batch 2, day 8, control 66143
  HBV-DNA Southern Blot Sum (IOD): 46884 IOD
HBV-DNA in 2.2.15 cells; Arginase 10 μg/ml (unit as headed), batch 2, day 8, control 76188
  HBV-DNA Southern Blot In Lane (IOD): 66241 IOD
HBV-DNA in 2.2.15 cells; [8]
  HBV-DNA Southern Blot In Lane % Suppression: 25.2982%
  HBV-DNA Southern Blot Sum % Suppression: 14.9893%
HBV-DNA in 2.2.15 cells; Arginase 20 μg/ml (unit as headed), batch 1, day 8, control 29421
  HBV-DNA Southern Blot Sum (IOD): 25011 IOD
HBV-DNA in 2.2.15 cells; Arginase 20 μg/ml (unit as headed), batch 1, day 8, control 42082
  HBV-DNA Southern Blot In Lane (IOD): 31436 IOD
HBV-DNA in 2.2.15 cells; [9]
  HBV-DNA Southern Blot In Lane % Suppression: 38.6255%
  HBV-DNA Southern Blot Sum % Suppression: 47.9416%
HBV-DNA in 2.2.15 cells; Arginase 20 μg/ml (unit as headed), batch 2, day 8, control 66143
  HBV-DNA Southern Blot Sum (IOD): 34433 IOD
HBV-DNA in 2.2.15 cells; Arginase 20 μg/ml (unit as headed), batch 2, day 8, control 76188
  HBV-DNA Southern Blot In Lane (IOD): 46760 IOD
HBV-DNA in 2.2.15 cells; batch 1, 8 days
  HBV-DNA Southern Blot Sum IC50: 25.42 IU/ml
HBV-DNA in 2.2.15 cells; batch 1, day 8
  HBV-DNA Southern Blot In Lane IC50: 21.45 IU/ml
HBV-DNA in 2.2.15 cells; batch 2, 8 days
  HBV-DNA Southern Blot Sum IC50: 14.17 IU/ml
HBV-DNA in 2.2.15 cells; batch 2, day 8
  HBV-DNA Southern Blot In Lane IC50: 18.67 IU/ml
HBV-DNA in 2.2.15 cells; two batches average, 8 days
  HBV-DNA Southern Blot Sum IC50: 19.79±7.95 IU/ml
HBV-DNA in 2.2.15 cells; two batches average, day 8
  HBV-DNA Southern Blot In Lane IC50: 20.06±1.96 IU/ml
2.2.15 cells
  TC50: 40 IU/ml
2.2.15 cells; listed as pegylated recombinant arginase
  TC0: 20±0 IU/ml
[1]
  % suppression of HBV-DNA in cell culture supernatant: 15.7769%
